According to patent US20090215861A1:

Biological target: CCR3 chemokine receptor (human) (UniProt P51677)
Test: cell-based or functional assay

UniProt P51677, sequence (P51677 whole entry): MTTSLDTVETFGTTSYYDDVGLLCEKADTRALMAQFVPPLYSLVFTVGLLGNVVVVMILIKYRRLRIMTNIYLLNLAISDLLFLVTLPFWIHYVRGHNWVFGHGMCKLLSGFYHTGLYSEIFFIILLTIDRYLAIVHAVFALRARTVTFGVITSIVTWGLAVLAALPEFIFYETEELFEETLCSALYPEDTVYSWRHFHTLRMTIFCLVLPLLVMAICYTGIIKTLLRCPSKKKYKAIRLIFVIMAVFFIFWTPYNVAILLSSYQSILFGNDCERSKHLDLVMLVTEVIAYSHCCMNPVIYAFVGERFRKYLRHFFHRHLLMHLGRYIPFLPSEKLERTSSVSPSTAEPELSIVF

rhEotaxin (Biosource, cat# PMC1434) (from UniProt P51671 24-97) (ligand)
chemotactic response of purified human eosinophils to eotaxin; decrease of migration after antisense oligonucleotides against CCR3: 55.6%
